Source: patent US11680267B2, “Co-regulatory sequences based on tetracycline and Cumate” (Shenzhen Eureka Biotechnology Co., Ltd., priority 2020, dated 2023)

Test system: 293T-rtTA3G-CymR cells
Test: Luciferase assay, transient transfection, DOX and Cumate vs no inducer (Example 3), rtTA3G cells
Format: cell-based
Protocol: 293T cells were seeded at 1.5E+06 cells per 60 mm culture dish, and cultured in DMEM (Sigam, D6429) complete medium supplemented with 10% FBS (ExCell, 11H116) at 37° C. and 5% CO 2. After 24 hours of culture, transfection was carried out according to the PEI method. During transfection, 500 μL of transfection reagent which contained 5.5 ug of total plasmid was added to each 60 mm culture dish, and the mass ratio of total plasmid to PEI MAX (Polysciences, 24765-1) was 1:4. The transfection was carried out according to the PEI method, wherein the amount of total plasmid was 5.5 μg. The transfection was performed with plasmids 19BF074:18BF019 at a molar ratio of 10:1 to obtain 293T-rtTAadv-CymR cells; and the transfection was performed with plasmids 19BF075:18BF019 at a molar ratio of 10:1 to obtain 293T-rtTA3G-CymR cells. The plasmid and PEI MAX were mixed uniformly, and then put into a culture dish after standing for 15 minutes. 3 hours after transfection, the medium was changed to a complete DMEM medium, and the transfection operation was completed. After 24 hours of transfection, the cells were digested with trypsin and all seeded in a 100 mm culture dish (Corning, 430167), and 200 μg/ml of hygromycin (Sangon Biotech A600230-0001) drug screening was performed for at least three passages. After the growth of cells under the pressure of drug screening was consistent with that of the original 293T cells, the following experiments were performed.
In Tet-On inducible expression system, the induced transcription activity and the leaky transcription activity were comprehensively affected by the TetO operator linking sequence of the TRE response element and the minimal promoter sequence, as well as different mutants of the transactivator rtTA. In addition, the transport and stability of messenger ribonucleic acid may be enhanced by linking a spliceable intron sequence downstream of the 3′ end of the response element and upstream of the 5′ end of the regulated nucleic acid fragment of interest, but the induced transcription activity and leaky transcription activity of response element of the inducible expression system may also be affected. Based on this, the optimal design scheme of complex response element was determined in this Example based on the induced expression level and the ratio of induced/leaky expression level of Luciferase gene under the combination of the following conditions: (1) Tet-On and Cumate complex response elements TREadvCuO and TRE3GCuO designed based on the TREadv and TRE3G response element sequences; (2) whether an intron was linked; (3) being regulated by the transactivator rtTAadv or rtTA3G. A total of 8 design schemes were compared in this Example: TREadv (18BF232), TREadvCuO (18BF233), TRE3G (18BF234), TRE3GCuO (18BF235), TREadv-BGI (18BF240, wherein the response element was TREadv, and a human β-globulin intron was linked between the 3′ end of the response element and the 5′ end of the Luciferase gene), TREadvCuO-BGI (18BF241, wherein the response element was TREadvCuO, and a human β-globulin intron was linked between the 3′ end of the response element and the 5′ end of the Luciferase gene), TRE3G-BGI (18BF236, wherein the response element was TRE3G, and a human β-globulin intron was linked between the 3′ end of the response element and the 5′ end of the Luciferase gene) and TRE3GCuO-BGI (18BF237, wherein the response element was TRE3GCuO, and a human β-globulin intron was linked between the 3′ end of the response element and the 5′ end of the Luciferase gene). The promoter CMV-BGI (18BF229, wherein the promoter was CMV, and a human β-globulin intron was linked between the 3′ end of the CMV promoter and the 5′ end of the Luciferase gene) was used as a positive control. […]

B1: TRE3GCuO: Tet-On (7xTetO of TRE3G) and Cumate complex response element, CuO 50 bp behind the TATA box (SEQ ID NO: 23) (nucleic acid)
DNA: TCCCTATCAGTGATAGAGAACGTATGAAGAGTTTACTCCCTATCAGTGATAGAGAACGTATGCAGACTTTACTCCCTATCAGTGATAGAGAACGTATAAGGAGTTTACTCCCTATCAGTGATAGAGAACGTATGACCAGTTTACTCCCTATCAGTGATAGAGAACGTATCTACAGTTTACTCCCTATCAGTGATAGAGAACGTATATCCAGTTTACTCCCTATCAGTGATAGAGAACGTATTAGGCGTGTACGGTGGGCGCCTATAAAAGCAGAGCTCGTTTAGTGAACCGTCAGATCGCCTGGAGCAATTCCACATACAAACAGACCAGATTGTCTGTTTGTT
modifications: TRE3GCuO50 response element sequence
B1 was tested, and the “increase of induced/leaky expression ratio of TRE3GCuO over TREadvCuO” value (293T-rtTA3G-CymR cells) was 37.6%, the “induced expression level as % of the induced expression level of TRE3G” value (293T-rtTA3G-CymR cells / regulation of rtTA3G) was 61.8% and the induced expression level (293T-rtTA3G-CymR cells, 1 ug/ml DOX and 200 ug/ml Cumate) was 4.24E+06 RLU. The “induced expression level as % of that of the single regulatory response element” value (293T-rtTA3G-CymR cells, DOX and Cumate) was 61.8% and the induced/leaky expression ratio (293T-rtTA3G-CymR cells, DOX and Cumate vs no inducer) was 2635 times.
